Kd data for one molecule are collected here from PMC12440737 (2025).

The assay has as its target T1, IL-6 receptor (Homo sapiens, UniProt P08887).
T1 chain: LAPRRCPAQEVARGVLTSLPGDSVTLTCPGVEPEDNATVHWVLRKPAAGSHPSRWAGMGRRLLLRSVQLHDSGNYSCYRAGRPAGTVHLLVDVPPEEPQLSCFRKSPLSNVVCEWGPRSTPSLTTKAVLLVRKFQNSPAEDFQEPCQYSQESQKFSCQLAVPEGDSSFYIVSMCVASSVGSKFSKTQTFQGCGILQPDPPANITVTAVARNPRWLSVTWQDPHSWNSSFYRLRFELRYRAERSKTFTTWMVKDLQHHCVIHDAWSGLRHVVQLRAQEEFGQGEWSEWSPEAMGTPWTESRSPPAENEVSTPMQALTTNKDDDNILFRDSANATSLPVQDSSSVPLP
Kind of assay: SPR. (In SPR one partner is held on a chip, and binding of the other changes the refractive index at the surface.)

B1: Tocilizumab (antibody, V domains shown)
VH: QVQLQESGPGLVRPSQTLSLTCTVSGYSITSDHAWSWVRQPPGRGLEWIGYISYSGITTYNPSLKSRVTMLRDTSKNQFSLRLSSVTAADTAVYYCARSLARTTAMDYWGQGSLVTVSS
VL: DIQMTQSPSSLSASVGDRVTITCRASQDISSYLNWYQQKPGKAPKLLIYYTSRLHSGVPSRFSGSGSGTDFTFTISSLQPEDIATYYCQQGNTLPYTFGQGTKVEIK
Molecule B1 returned a Kd of 9.9 nM. In other words, the single-digit nanomolar range.

Broadly, the Kd is the free concentration of one partner at which half of the binding sites on the other are occupied at equilibrium, for simple one-to-one binding. Lower therefore signals a tighter complex.
